Laboratory results published in US20230416330A1, “Optimized GIP Peptide Analogues” (Antag Therapeutics ApS, priority 2019, published 2023).
Starred links: 1 amine or outer side, 2 acyl side, 3 side chain; linkers in the order of their positions; H or OH if unused. Non-standard residues stand in square brackets, D forms with d. Residues, ends and D or L forms follow the SMILES beside them. Groups on a side chain read outwards from the residue. No end group written: not given here. *: point of attachment. C18 diacid = O=C(O)CCCCCCCCCCCCCCCCC(=O)*; C16 diacid = O=C(O)CCCCCCCCCCCCCCC(=O)*; γGlu = O=C(O)[C@H](CCC(=O)[*:2])N[*:1]; Glutaryl = O=C(CCCC(=O)[*:2])[*:1]; Nle = CCCC[C@H](N)C(=O)O; AEEA = NCCOCCOCC(=O)O; Aib = CC(C)(N)C(=O)O

What was measured:
[1] = Solubility by visual inspection of peptide solutions; type: physicochemical; conditions: 1 mg/ml, TFA, Phosphate (7.4)
How it was run: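 Solubility scored by eye: clear, colorless appearance after gentle mixing. Samples prepared at 1, 5, 7.5 or 15 mg/ml in either pH 7.4 water (NaOH-adjusted) or 50 mM sodium phosphate buffer, pH 7.4.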

human GIP receptor [2] = biological target: T1, human GIP receptor (Homo sapiens, UniProt P48546); assay: cAMP assay Alternative 2 (Gaddum assay), antagonist potency pKb; type: cell-based; conditions: Table 2C; Gaddum equation, single antagonist dose; HEK-293 hGIPR; read-out: nM (Kb)
T1 construct: host or cells: HEK-293 cells, transient transfection (Lipofectamine 2000), cDNA in pCMV-Script vector
T1 sequence (P48546 22-466): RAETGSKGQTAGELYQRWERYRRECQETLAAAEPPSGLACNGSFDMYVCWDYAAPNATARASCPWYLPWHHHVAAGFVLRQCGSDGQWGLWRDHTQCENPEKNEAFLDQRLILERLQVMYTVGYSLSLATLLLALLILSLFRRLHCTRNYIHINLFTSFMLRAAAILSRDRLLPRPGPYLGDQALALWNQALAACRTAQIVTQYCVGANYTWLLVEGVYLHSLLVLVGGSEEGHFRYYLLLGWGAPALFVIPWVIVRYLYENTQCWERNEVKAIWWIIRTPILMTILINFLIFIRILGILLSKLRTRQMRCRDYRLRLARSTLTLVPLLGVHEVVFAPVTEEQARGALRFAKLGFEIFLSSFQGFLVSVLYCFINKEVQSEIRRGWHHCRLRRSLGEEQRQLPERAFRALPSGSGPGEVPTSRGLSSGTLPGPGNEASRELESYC

[3] = Physical stability: fibril formation in Thioflavin T (ThT) assay with agitation; type: physicochemical; conditions: 1 mg/ml, TFA, Phosphate (7.4); 25° C., agitation
How it was run: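 Read-out is continuous ThT fluorescence at 486 nm, with lag time taken where signal reaches 10% between pre- and post-transition baselines. Filtered samples (1, 5, 7.5 or 15 mg/ml; pH 7.4 phosphate buffer or NaOH-adjusted water) were stressed at 25° C. by orbital rotation at 300 rpm with one silica bead per well.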

human GIP receptor [4] = biological target: T2, human GIP receptor (human, UniProt P48546 22-466); assay: cell-based or functional assay
T2 sequence (looked up): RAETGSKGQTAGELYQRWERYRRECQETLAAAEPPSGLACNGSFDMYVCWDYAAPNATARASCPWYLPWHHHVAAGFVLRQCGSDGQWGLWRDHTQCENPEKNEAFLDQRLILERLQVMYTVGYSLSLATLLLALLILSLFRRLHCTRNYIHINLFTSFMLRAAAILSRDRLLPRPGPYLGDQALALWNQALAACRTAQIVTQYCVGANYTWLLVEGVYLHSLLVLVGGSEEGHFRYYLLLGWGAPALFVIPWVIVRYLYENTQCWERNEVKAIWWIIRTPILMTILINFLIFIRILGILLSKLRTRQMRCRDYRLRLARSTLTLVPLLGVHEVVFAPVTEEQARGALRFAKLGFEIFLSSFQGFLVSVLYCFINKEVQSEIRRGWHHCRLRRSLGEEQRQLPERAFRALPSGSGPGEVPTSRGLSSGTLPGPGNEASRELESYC

human GIP receptor [5] = biological target: T2, human GIP receptor; assay: cell-based or functional assay; remark: listed apart in the source

Molecule: CC[C@H](C)[C@H](NC(=O)[C@H](CCCCN)NC(=O)[C@H](CCC(=O)O)NC(=O)[C@H](CC(C)C)NC(=O)C(C)(C)NC(=O)[C@@H](NC(=O)[C@H](CO)NC(=O)[C@H](Cc1ccc(O)cc1)NC(=O)[C@H](CCC(=O)O)NC(=O)[C@H](CO)NC(=O)[C@@H](NC(=O)[C@H](Cc1ccccc1)NC(=O)[C@@H](NC(=O)CNC(=O)[C@@H](N)CCC(=O)O)[C@@H](C)O)[C@@H](C)CC)[C@@H](C)CC)C(=O)N[C@@H](CCCCNC(=O)COCCOCCNC(=O)COCCOCCNC(=O)CC[C@H](NC(=O)CCCCCCCCCCCCCCCCC(=O)O)C(=O)O)C(=O)N[C@@H](CCC(N)=O)C(=O)N[C@@H](CCC(N)=O)C(=O)N[C@@H](CC(=O)O)C(=O)N[C@@H](Cc1ccccc1)C(=O)N[C@H](C(=O)N[C@@H](CCC(=O)O)C(=O)N[C@@H](Cc1c[nH]c2ccccc12)C(=O)N[C@@H](CC(C)C)C(=O)N[C@@H](CC(C)C)C(=O)N[C@@H](C)C(=O)N[C@@H](CCC(N)=O)C(=O)N[C@@H](CCCCN)C(=O)N1CCC[C@H]1C(=O)N[C@@H](CO)C(=O)N[C@@H](CO)C(=O)NCC(=O)N[C@@H](C)C(=O)N1CCC[C@H]1C(=O)N1CCC[C@H]1C(=O)N1CCC[C@H]1C(=O)N[C@@H](CO)C(=O)O)C(C)C [AT754] (H-EGTFISEYSI[Aib]LEKIK([AEEA-AEEA-γGlu-C18 diacid])QQDFVEWLLAQKPSSGAPPPS-OH; N-terminus assumed)
- Visual appearance [1]: Clear
- Kb (human GIP receptor [2]): 2.2 nM
- Avr lag time (h) [3]: fnd (Fnd = fibrils not detected within experiment time (96 hours) with agitation.)

Molecule: CCCC[C@H](NC(=O)C(C)(C)NC(=O)[C@@H](NC(=O)[C@H](CO)NC(=O)[C@H](Cc1ccc(O)cc1)NC(=O)[C@H](CCC(=O)O)NC(=O)[C@H](CO)NC(=O)[C@@H](NC(=O)[C@H](Cc1ccccc1)NC(=O)[C@@H](NC(=O)CNC(=O)CCCC(=O)O)[C@@H](C)O)[C@@H](C)CC)[C@@H](C)CC)C(=O)N[C@@H](CCC(=O)O)C(=O)N[C@@H](CCCCN)C(=O)N[C@H](C(=O)N[C@@H](CCCCNC(=O)CCCCCCCCCCCCCCC(=O)O)C(=O)N[C@@H](CCC(N)=O)C(=O)N[C@@H](CCC(N)=O)C(=O)N[C@@H](CCC(=O)O)C(=O)N[C@@H](Cc1ccccc1)C(=O)N[C@H](C(=O)N[C@@H](CCC(=O)O)C(=O)N[C@@H](Cc1c[nH]c2ccccc12)C(=O)N[C@@H](CC(C)C)C(=O)N[C@@H](CC(C)C)C(=O)N[C@@H](C)C(=O)N[C@@H](CCC(N)=O)C(=O)N[C@@H](CCCCN)C(=O)N1CCC[C@H]1C(=O)N[C@@H](CO)C(=O)N[C@@H](CO)C(=O)NCC(=O)N[C@@H](C)C(=O)N1CCC[C@H]1C(=O)N1CCC[C@H]1C(=O)N1CCC[C@H]1C(=O)N[C@@H](CO)C(=O)O)C(C)C)[C@@H](C)CC [AT755] (Glutaryl-GTFISEYSI[Aib][Nle]EKIK(C16 diacid)QQEFVEWLLAQKPSSGAPPPS-OH)
- Visual appearance [1]: Clear
- Kb (human GIP receptor [2]): 0.23 nM
- Avr lag time (h) [3]: fnd (Fnd = fibrils not detected within experiment time (96 hours) with agitation.)

B1: AT437 (peptide)
peptide: SGTFISDYSIAMDKIK([AEEA-AEEA-γGlu-C18 diacid])QQDFVNWLLAQKPSSGAPPPS-OH
modifications: N-terminus assumed
SMILES: CC[C@H](C)[C@H](NC(=O)[C@H](CO)NC(=O)[C@H](Cc1ccc(O)cc1)NC(=O)[C@H](CC(=O)O)NC(=O)[C@H](CO)NC(=O)[C@@H](NC(=O)[C@H](Cc1ccccc1)NC(=O)[C@@H](NC(=O)CNC(=O)[C@@H](N)CO)[C@@H](C)O)[C@@H](C)CC)C(=O)N[C@@H](C)C(=O)N[C@@H](CCSC)C(=O)N[C@@H](CC(=O)O)C(=O)N[C@@H](CCCCN)C(=O)N[C@H](C(=O)N[C@@H](CCCCNC(=O)COCCOCCNC(=O)COCCOCCNC(=O)CC[C@H](NC(=O)CCCCCCCCCCCCCCCCC(=O)O)C(=O)O)C(=O)N[C@@H](CCC(N)=O)C(=O)N[C@@H](CCC(N)=O)C(=O)N[C@@H](CC(=O)O)C(=O)N[C@@H](Cc1ccccc1)C(=O)N[C@H](C(=O)N[C@@H](CC(N)=O)C(=O)N[C@@H](Cc1c[nH]c2ccccc12)C(=O)N[C@@H](CC(C)C)C(=O)N[C@@H](CC(C)C)C(=O)N[C@@H](C)C(=O)N[C@@H](CCC(N)=O)C(=O)N[C@@H](CCCCN)C(=O)N1CCC[C@H]1C(=O)N[C@@H](CO)C(=O)N[C@@H](CO)C(=O)NCC(=O)N[C@@H](C)C(=O)N1CCC[C@H]1C(=O)N1CCC[C@H]1C(=O)N1CCC[C@H]1C(=O)N[C@@H](CO)C(=O)O)C(C)C)[C@@H](C)CC
- cAMP antagonism nM (IC50, CisBio assay) (human GIP receptor [4]): 35.5 nM
- cAMP antagonism pIC50 (CisBio assay) (human GIP receptor [4]): 7.5

B2: AT482 (peptide)
peptide: EGTFISEYSIAMEKIK(C16 diacid)QQEFVQWLLAQK-NH2
modifications: N-terminus assumed
SMILES: CC[C@H](C)[C@H](NC(=O)[C@H](CO)NC(=O)[C@H](Cc1ccc(O)cc1)NC(=O)[C@H](CCC(=O)O)NC(=O)[C@H](CO)NC(=O)[C@@H](NC(=O)[C@H](Cc1ccccc1)NC(=O)[C@@H](NC(=O)CNC(=O)[C@@H](N)CCC(=O)O)[C@@H](C)O)[C@@H](C)CC)C(=O)N[C@@H](C)C(=O)N[C@@H](CCSC)C(=O)N[C@@H](CCC(=O)O)C(=O)N[C@@H](CCCCN)C(=O)N[C@H](C(=O)N[C@@H](CCCCNC(=O)CCCCCCCCCCCCCCC(=O)O)C(=O)N[C@@H](CCC(N)=O)C(=O)N[C@@H](CCC(N)=O)C(=O)N[C@@H](CCC(=O)O)C(=O)N[C@@H](Cc1ccccc1)C(=O)N[C@H](C(=O)N[C@@H](CCC(N)=O)C(=O)N[C@@H](Cc1c[nH]c2ccccc12)C(=O)N[C@@H](CC(C)C)C(=O)N[C@@H](CC(C)C)C(=O)N[C@@H](C)C(=O)N[C@@H](CCC(N)=O)C(=O)N[C@@H](CCCCN)C(N)=O)C(C)C)[C@@H](C)CC
- cAMP antagonism nM (IC50, CisBio assay) (human GIP receptor [4]): 14.1 nM
- cAMP antagonism pIC50 (CisBio assay) (human GIP receptor [4]): 7.9

B3: AT760 (peptide)
peptide: EGTFISDYSIXMDKIKQQDFVNWLLAQKPSSGAPPPS
modifications: Aib at 13; C16-diacid on Lys18 side chain, no linker; C-terminal COOH; GIP(1-42) numbering
- nM (Kb, Schild analysis, cAMP) (human GIP receptor [5]): 0.46 nM
- pKb (Schild analysis, cAMP) (human GIP receptor [5]): 9.3

Molecule: Glutaryl-GTFISDYSI[Aib]MDKIK(C16 diacid)QQDFVNWLLAQKPSSGAPPPS-OH [AT763]
- nM (Kb, Schild analysis, cAMP) (human GIP receptor [5]): 0.14 nM
- pKb (Schild analysis, cAMP) (human GIP receptor [5]): 9.9

B4: AT762 (peptide)
peptide: Glutaryl-GTFISDYSIAMDKIK(C16 diacid)QQDFVEWLLAQKPSSGAPPPS-OH
SMILES: CC[C@H](C)[C@H](NC(=O)[C@H](CO)NC(=O)[C@H](Cc1ccc(O)cc1)NC(=O)[C@H](CC(=O)O)NC(=O)[C@H](CO)NC(=O)[C@@H](NC(=O)[C@H](Cc1ccccc1)NC(=O)[C@@H](NC(=O)CNC(=O)CCCC(=O)O)[C@@H](C)O)[C@@H](C)CC)C(=O)N[C@@H](C)C(=O)N[C@@H](CCSC)C(=O)N[C@@H](CC(=O)O)C(=O)N[C@@H](CCCCN)C(=O)N[C@H](C(=O)N[C@@H](CCCCNC(=O)CCCCCCCCCCCCCCC(=O)O)C(=O)N[C@@H](CCC(N)=O)C(=O)N[C@@H](CCC(N)=O)C(=O)N[C@@H](CC(=O)O)C(=O)N[C@@H](Cc1ccccc1)C(=O)N[C@H](C(=O)N[C@@H](CCC(=O)O)C(=O)N[C@@H](Cc1c[nH]c2ccccc12)C(=O)N[C@@H](CC(C)C)C(=O)N[C@@H](CC(C)C)C(=O)N[C@@H](C)C(=O)N[C@@H](CCC(N)=O)C(=O)N[C@@H](CCCCN)C(=O)N1CCC[C@H]1C(=O)N[C@@H](CO)C(=O)N[C@@H](CO)C(=O)NCC(=O)N[C@@H](C)C(=O)N1CCC[C@H]1C(=O)N1CCC[C@H]1C(=O)N1CCC[C@H]1C(=O)N[C@@H](CO)C(=O)O)C(C)C)[C@@H](C)CC
- nM (Kb, Schild analysis, cAMP) (human GIP receptor [5]): 0.15 nM
- pKb (Schild analysis, cAMP) (human GIP receptor [5]): 9.8
